Data set [1] addresses T1, SKN-1 peptides (UniProt P34707).
T1 sequence: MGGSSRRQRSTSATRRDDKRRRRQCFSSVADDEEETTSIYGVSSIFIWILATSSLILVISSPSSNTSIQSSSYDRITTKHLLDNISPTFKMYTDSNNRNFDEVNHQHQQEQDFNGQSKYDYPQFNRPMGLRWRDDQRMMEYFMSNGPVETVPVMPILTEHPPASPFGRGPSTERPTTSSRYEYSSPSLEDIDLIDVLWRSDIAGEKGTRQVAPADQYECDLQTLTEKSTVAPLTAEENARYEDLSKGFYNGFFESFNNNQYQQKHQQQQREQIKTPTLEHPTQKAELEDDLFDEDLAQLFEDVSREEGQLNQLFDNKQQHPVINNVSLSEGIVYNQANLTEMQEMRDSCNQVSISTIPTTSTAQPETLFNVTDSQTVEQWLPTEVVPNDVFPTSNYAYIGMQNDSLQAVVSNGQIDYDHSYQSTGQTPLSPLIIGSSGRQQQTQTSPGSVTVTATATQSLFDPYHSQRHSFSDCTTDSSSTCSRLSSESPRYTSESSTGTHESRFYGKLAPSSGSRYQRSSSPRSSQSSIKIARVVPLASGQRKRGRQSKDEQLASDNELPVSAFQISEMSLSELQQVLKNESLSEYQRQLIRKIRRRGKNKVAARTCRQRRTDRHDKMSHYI

In data set [2] the target is T2, SKN-1 DNA binding domain (SKN domain, 85 aa) (Caenorhabditis elegans, UniProt P34707 SEQ:1-85).
T2 sequence: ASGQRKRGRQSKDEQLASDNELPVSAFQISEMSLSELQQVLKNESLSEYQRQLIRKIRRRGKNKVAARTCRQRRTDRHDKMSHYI
Description: EMSA; no binding to mutant probe; as unlabeled competitor much less effective than wild type. The following applies: label: 32P. On the procedure: (§1) FIGS. 4A and 4B: Specific binding of SKN-1 to an essential gcs-1 promoter sequence. 4A: Binding of full-length SKN-1 to site 3 within the gcs-1 composite element, assayed by EMSA. Lanes 2-5 show binding of increasing amounts of in vitro translated SKN-1 protein (0 μl, 0.25 μl, 0.5 μl, 3 μl translation lysate; indicated by a triangle) to the wild type site. […] A background species is labeled. Lanes 6-10 show the same assay performed with the mutant probe. In lanes 11-20, SKN-1-DNA binding is assayed in the presence of the indicated unlabelled competitor oligonucleotides. Lanes 12-15 and 17-20 correspond to addition of a 20-, 50-, 150-, and 400-fold molar excess of competitor over the labeled wild-type DNA. 4B: The in vitro translated SKN-1 DNA binding domain (FIG. 1B) binds specifically to the gcs-1 composite element. Binding was assayed as in 4A.
(§2) Remarkably, SKN-1 binding site 3 is located within a 42 bp gcs-1 promoter element that is similar to a composite motif through which SKN-1 activates med-1 and med-2 in the embryo (FIGS. 1A and 3C) (Maduro et al. Mol. Cell 7: 475-485 (2001)). The conservation between these gcs-1 and med promoter elements is particularly striking because they are located at identical distances from their respective translation starts, but contain different numbers of SKN-1 sites (FIG. 3C). […]
On the technique in general: In EMSA bound probe runs differently from free probe, usually more slowly.

Data set [3] deals with T3, SKN-1 full-length (Caenorhabditis elegans, UniProt P34707 SEQ:1-533).
T3 sequence: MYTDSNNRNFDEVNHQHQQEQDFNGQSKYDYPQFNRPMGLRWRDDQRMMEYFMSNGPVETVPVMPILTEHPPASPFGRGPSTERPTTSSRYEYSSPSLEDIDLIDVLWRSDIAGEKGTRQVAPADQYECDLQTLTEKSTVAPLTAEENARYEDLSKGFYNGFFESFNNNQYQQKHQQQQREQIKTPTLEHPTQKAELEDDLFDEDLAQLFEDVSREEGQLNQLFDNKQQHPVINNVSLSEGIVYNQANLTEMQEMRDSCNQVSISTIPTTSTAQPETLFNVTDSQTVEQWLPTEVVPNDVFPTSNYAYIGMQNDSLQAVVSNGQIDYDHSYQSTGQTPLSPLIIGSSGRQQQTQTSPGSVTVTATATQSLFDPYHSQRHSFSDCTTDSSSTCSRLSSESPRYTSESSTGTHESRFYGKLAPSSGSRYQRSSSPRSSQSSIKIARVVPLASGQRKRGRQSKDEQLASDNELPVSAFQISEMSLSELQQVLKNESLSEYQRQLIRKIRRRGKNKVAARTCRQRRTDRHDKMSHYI
The description is as above. The following applies: label: 32P. On the procedure:
as §1, §2

For the molecule GSK-3, in data set [1], the “phosphorylation of SKN-1 by GSK-3” value is given as “GSK-3 then phosphorylates SKN-1 sequentially in the amino-terminal direction” and the “phosphorylation of SKN-1 peptides by GSK-3” value is recorded as “Phosphorylation by GSK-3 required priming phosphorylation at a serine or threonine residue located four positions carboxyl-terminal to the GSK-3 site”.

B1: gcs-1 composite element, site 3 mutant (dsDNA)
DNA 1: ACTTTCTGCAGATGAGATTTAATGTTTCCTTTTGATTTTCT
DNA 2: AGAAAATCAAAAGGAAACATTAAATCTCATCTGCAGAAAGT
Consider B1, for which the binding result in data set [2] and in data set [3] was “no binding” each time.

The record behind these values is patent US20080141385, “Skn-1 and Gsk-3 Genes and Proteins” (published 2008).
